Results from PMC13539869, “Dpb11 facilitates the colocalization of Mec1-Ddc2 with its activators on gapped DNA” (Cell reports, 2026).

Tests used:
[1] = test system: Dpb11;Mec1;Ddc2;RPA (Saccharomyces cerevisiae;Saccharomyces cerevisiae;Saccharomyces cerevisiae;Saccharomyces cerevisiae); experiment: single-molecule fluorescence (C-Trap kymographs); conditions: 5' dual-biotin at both ends; Imaging: 25 mM Tris-HCl pH 7.5, 100 mM NaCl, 10 mM Mg acetate, 2 mM TCEP, 0.1 mM EDTA, 0.04 mg/mL BSA, 1% glycerol, oxygen scavengers; room temperature, no …; scale: % of Mec1-Ddc2 binding events at gap junctions
[2] = test system: Dpb11;RPA (Saccharomyces cerevisiae;Saccharomyces cerevisiae); experiment: single-molecule fluorescence (C-Trap kymographs); conditions: 5' dual-biotin at both ends; Imaging: 25 mM Tris-HCl pH 7.5, 100 mM NaCl, 10 mM Mg acetate, 2 mM TCEP, 0.1 mM EDTA, 0.04 mg/mL BSA, 1% glycerol, oxygen scavengers; room temperature, no …
[3] = molecular target: T1, Sc Dpb11 recombinant protein (unlabeled) (S. cerevisiae), P47027; experiment: mass photometry; 50 nM Dpb11, label-free, MP Buffer (25 mM Tris-HCl pH 7.5, 250 mM NaCl, 10 mM Mg(CH3COO)2, 2 mM TCEP, 0.1 mM EDTA, 4% glycerol); monomer and dimer; conditions: remark: other sources report otherwise
T1 chain: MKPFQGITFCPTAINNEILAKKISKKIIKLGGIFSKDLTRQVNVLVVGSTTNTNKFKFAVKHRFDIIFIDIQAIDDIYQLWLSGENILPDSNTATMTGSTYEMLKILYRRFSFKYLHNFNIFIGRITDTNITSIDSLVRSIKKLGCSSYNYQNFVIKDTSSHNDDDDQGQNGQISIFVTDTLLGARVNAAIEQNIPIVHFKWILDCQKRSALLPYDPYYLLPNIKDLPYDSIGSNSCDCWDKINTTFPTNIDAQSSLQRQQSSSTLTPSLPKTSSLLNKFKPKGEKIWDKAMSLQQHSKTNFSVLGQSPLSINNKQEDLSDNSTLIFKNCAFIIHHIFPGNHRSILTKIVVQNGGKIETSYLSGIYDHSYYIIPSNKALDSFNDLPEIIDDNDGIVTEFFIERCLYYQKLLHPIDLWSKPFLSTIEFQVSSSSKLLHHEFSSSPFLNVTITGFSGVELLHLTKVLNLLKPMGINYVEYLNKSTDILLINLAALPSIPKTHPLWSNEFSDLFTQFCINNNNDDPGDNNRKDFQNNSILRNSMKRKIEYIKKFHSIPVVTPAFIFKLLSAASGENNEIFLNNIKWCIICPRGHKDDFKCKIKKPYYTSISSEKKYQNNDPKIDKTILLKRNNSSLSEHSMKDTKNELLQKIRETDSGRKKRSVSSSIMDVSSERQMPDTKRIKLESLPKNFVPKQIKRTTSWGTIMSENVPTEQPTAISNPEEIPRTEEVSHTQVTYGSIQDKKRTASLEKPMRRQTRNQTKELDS

[4] = molecular target: T1, Sc Dpb11 recombinant protein …; experiment: mass photometry; 150 nM Dpb11, label-free, MP Buffer (25 mM Tris-HCl pH 7.5, 250 mM NaCl, 10 mM Mg(CH3COO)2, 2 mM TCEP, 0.1 mM EDTA, 4% glycerol); monomer and dimer; conditions: remark: other sources report otherwise
[5] = molecular target: T2, Mec1-Ddc2^AF647 (Mec1(a)-Ddc2 labeled with Alexa Fluor 647) (S. cerevisiae, UniProt P38111 1-2368; Q04377 1-747, fluorophore AF647 (NHS ester) at the N-terminal amine of Mec1-Ddc2; which chain is not told | fluorophore AF647 (NHS ester) at the N-terminal amine of Mec1-Ddc2; which chain is not told); experiment: single-molecule fluorescence imaging (C-Trap, optical tweezers with confocal microscopy); 30 nM fluorescent Mec1-Ddc2, 200 nM unlabeled Dpb11 and 100 nM unlabeled RPA on 3 kb-gapped DNA; distribution of initial binding positions of Mec1-Ddc2; SM Buffer, room temperature, no flow; conditions: both partners purified
T2 construct: Mec1, S. cerevisiae; gene synthesized by Biomatik; Ddc2, S. cerevisiae; gene by PCR from genomic DNA of strain S288C; Only the Mec1(b) plasmid was deposited (Addgene 240737); Mec1(a) differs in the C-terminal tag region; also called Sc Mec1(a)-Ddc2 recombinant protein; copies: 2 + 2

[6] = molecular target: T3, Mec1-Ddc2^LD555 (Mec1(b)-Ddc2 labeled with LD555) (S. cerevisiae, UniProt P38111 1-2368; Q04377 1-747, fluorophore LD555 (NHS ester) at the N-terminal amine of Mec1-Ddc2; which chain is not told | fluorophore LD555 (NHS ester) at the N-terminal amine of Mec1-Ddc2; which chain is not told); experiment: as above; conditions: both partners purified
T3 construct: Mec1, S. cerevisiae; gene synthesized by Biomatik; Ddc2, S. cerevisiae; gene by PCR from genomic DNA of strain S288C; also called fluorescent Mec1-Ddc2; Sc Mec1(b)-Ddc2 recombinant protein; copies: 2 + 2

[7] = molecular target: T3, Mec1-Ddc2^LD555 (Mec1(b)-Ddc2 labeled …); experiment: single-molecule fluorescence imaging, dual-color colocalization (C-Trap); 10 nM Mec1-Ddc2^LD555, 20 nM Dpb11^LD655, 180 nM unlabeled Dpb11 and 100 nM unlabeled RPA on 3 kb-gapped DNA; SM Buffer, room temperature, no flow; conditions: both partners purified

3 kb-gapped 19 kb DNA
binding signal [1]: 50
binding signal (% of binding events at gap junctions) [2]: 53

B1: Sc Dpb11 recombinant protein (unlabeled), P47027 1-764 (natural protein)
chain: MKPFQGITFCPTAINNEILAKKISKKIIKLGGIFSKDLTRQVNVLVVGSTTNTNKFKFAVKHRFDIIFIDIQAIDDIYQLWLSGENILPDSNTATMTGSTYEMLKILYRRFSFKYLHNFNIFIGRITDTNITSIDSLVRSIKKLGCSSYNYQNFVIKDTSSHNDDDDQGQNGQISIFVTDTLLGARVNAAIEQNIPIVHFKWILDCQKRSALLPYDPYYLLPNIKDLPYDSIGSNSCDCWDKINTTFPTNIDAQSSLQRQQSSSTLTPSLPKTSSLLNKFKPKGEKIWDKAMSLQQHSKTNFSVLGQSPLSINNKQEDLSDNSTLIFKNCAFIIHHIFPGNHRSILTKIVVQNGGKIETSYLSGIYDHSYYIIPSNKALDSFNDLPEIIDDNDGIVTEFFIERCLYYQKLLHPIDLWSKPFLSTIEFQVSSSSKLLHHEFSSSPFLNVTITGFSGVELLHLTKVLNLLKPMGINYVEYLNKSTDILLINLAALPSIPKTHPLWSNEFSDLFTQFCINNNNDDPGDNNRKDFQNNSILRNSMKRKIEYIKKFHSIPVVTPAFIFKLLSAASGENNEIFLNNIKWCIICPRGHKDDFKCKIKKPYYTSISSEKKYQNNDPKIDKTILLKRNNSSLSEHSMKDTKNELLQKIRETDSGRKKRSVSSSIMDVSSERQMPDTKRIKLESLPKNFVPKQIKRTTSWGTIMSENVPTEQPTAISNPEEIPRTEEVSHTQVTYGSIQDKKRTASLEKPMRRQTRNQTKELDS
percent of particles as dimer [3]: 64%
percent of particles as monomer [3]: 35%
stoichiometry N [3]: 2
percent of particles as dimer [4]: 98%
stoichiometry N [4]: 2

B2: Sc Dpb11 recombinant protein (unlabeled) (natural protein, S. cerevisiae, UniProt P47027 1-764, looked up)
chain: MKPFQGITFCPTAINNEILAKKISKKIIKLGGIFSKDLTRQVNVLVVGSTTNTNKFKFAVKHRFDIIFIDIQAIDDIYQLWLSGENILPDSNTATMTGSTYEMLKILYRRFSFKYLHNFNIFIGRITDTNITSIDSLVRSIKKLGCSSYNYQNFVIKDTSSHNDDDDQGQNGQISIFVTDTLLGARVNAAIEQNIPIVHFKWILDCQKRSALLPYDPYYLLPNIKDLPYDSIGSNSCDCWDKINTTFPTNIDAQSSLQRQQSSSTLTPSLPKTSSLLNKFKPKGEKIWDKAMSLQQHSKTNFSVLGQSPLSINNKQEDLSDNSTLIFKNCAFIIHHIFPGNHRSILTKIVVQNGGKIETSYLSGIYDHSYYIIPSNKALDSFNDLPEIIDDNDGIVTEFFIERCLYYQKLLHPIDLWSKPFLSTIEFQVSSSSKLLHHEFSSSPFLNVTITGFSGVELLHLTKVLNLLKPMGINYVEYLNKSTDILLINLAALPSIPKTHPLWSNEFSDLFTQFCINNNNDDPGDNNRKDFQNNSILRNSMKRKIEYIKKFHSIPVVTPAFIFKLLSAASGENNEIFLNNIKWCIICPRGHKDDFKCKIKKPYYTSISSEKKYQNNDPKIDKTILLKRNNSSLSEHSMKDTKNELLQKIRETDSGRKKRSVSSSIMDVSSERQMPDTKRIKLESLPKNFVPKQIKRTTSWGTIMSENVPTEQPTAISNPEEIPRTEEVSHTQVTYGSIQDKKRTASLEKPMRRQTRNQTKELDS
notes: Dpb11, S. cerevisiae strain S288C gene; Eluted from the beads with 3xFLAG peptide; no removal of the tag is described; By mass photometry a mixture of monomer and dimer; also called unlabeled Dpb11
binding result [5]: binds
binding result [6]: binds

B3: Dpb11^LD655 (natural protein, S. cerevisiae, UniProt P47027 1-764, looked up)
chain: MKPFQGITFCPTAINNEILAKKISKKIIKLGGIFSKDLTRQVNVLVVGSTTNTNKFKFAVKHRFDIIFIDIQAIDDIYQLWLSGENILPDSNTATMTGSTYEMLKILYRRFSFKYLHNFNIFIGRITDTNITSIDSLVRSIKKLGCSSYNYQNFVIKDTSSHNDDDDQGQNGQISIFVTDTLLGARVNAAIEQNIPIVHFKWILDCQKRSALLPYDPYYLLPNIKDLPYDSIGSNSCDCWDKINTTFPTNIDAQSSLQRQQSSSTLTPSLPKTSSLLNKFKPKGEKIWDKAMSLQQHSKTNFSVLGQSPLSINNKQEDLSDNSTLIFKNCAFIIHHIFPGNHRSILTKIVVQNGGKIETSYLSGIYDHSYYIIPSNKALDSFNDLPEIIDDNDGIVTEFFIERCLYYQKLLHPIDLWSKPFLSTIEFQVSSSSKLLHHEFSSSPFLNVTITGFSGVELLHLTKVLNLLKPMGINYVEYLNKSTDILLINLAALPSIPKTHPLWSNEFSDLFTQFCINNNNDDPGDNNRKDFQNNSILRNSMKRKIEYIKKFHSIPVVTPAFIFKLLSAASGENNEIFLNNIKWCIICPRGHKDDFKCKIKKPYYTSISSEKKYQNNDPKIDKTILLKRNNSSLSEHSMKDTKNELLQKIRETDSGRKKRSVSSSIMDVSSERQMPDTKRIKLESLPKNFVPKQIKRTTSWGTIMSENVPTEQPTAISNPEEIPRTEEVSHTQVTYGSIQDKKRTASLEKPMRRQTRNQTKELDS
modifications: fluorophore LD655 (NHS ester) at the N-terminal amine
notes: Dpb11, S. cerevisiae strain S288C gene; Same protein as m1, labeled; In the dual-color experiment 20 nM of it stood with 180 nM unlabeled Dpb11; also called fluorescent Dpb11; Dpb11 labeled with LD655; source: S. cerevisiae strain OY001, GAL1/10 overexpression, purified (FLAG-Ab beads), then labeled with LD655 NHS
binding result [7]: binds
